Test results from patent publication US20170114104A1.

Experiments:
[1] = target: Biotinylated green fluorescent protein (biotin-GFP); test: native-PAGE, dissociation under excess biotin, 23 °C, 10 h
[2] = target: Biotinylated green fluorescent protein (biotin-GFP); test: native-PAGE, dissociation under excess biotin, 37 °C, 10 h
[3] = target: Biotinylated green fluorescent protein (biotin-GFP); test: native-PAGE, dissociation under excess biotin, 45 °C, 10 h

For “Neutravidin (NA) (from UniProt P02701 25-152)”, which percent of biotin conjugate dissociated after 10 h [1] is on record?
The percent of biotin conjugate dissociated after 10 h was 6.8%.

And the percent of biotin conjugate dissociated after 10 h [2]?
The percent of biotin conjugate dissociated after 10 h was 16%.

What about the percent of biotin conjugate dissociated after 10 h [3] of the same substance?
Its percent of biotin conjugate dissociated after 10 h is 32%.
